Measured values reported in patent US20220259593A1, “CONTROL OF MAMMALIAN GENE DOSAGE USING CRISPR” (The Regents of the University of California, priority 2019, published 2022).
Residue numbers refer to the chain shown, from its start.

B1: cr558 (nucleic acid)
guide: GTTTAAGAGCTAAGCTGGAAACAGCATAGCAAGTTTAAATAAGGCTAGTCCGTTATCAACTTGAAAAAGTGGCTCGGAGTCCGAGCT
modifications: listed as DNA, chemistry not fully specified
B2: cr380 (nucleic acid)
guide: B1 guide with A65G, C73T, T74A, G76C, C82G, A84T, G85A
modifications: listed as DNA, chemistry not fully specified
B3: cr550 (nucleic acid)
guide: B1 guide with T74A, G76A, G77A, C81T, C82T, A84T
modifications: listed as DNA, chemistry not fully specified
B4: cr684 (nucleic acid)
guide: B1 guide with T74A, G76T, G77A, C81T, C82A, A84T
modifications: listed as DNA, chemistry not fully specified
B5: cr819 (nucleic acid)
guide: B1 guide with A28C, A47G, T53G, T74A, G76C, C82G, A84T
modifications: listed as DNA, chemistry not fully specified
B6: cr508 (nucleic acid)
guide: B1 guide with T46C, T54G, T74A, G76C, T80C, C82G, A84T
modifications: listed as DNA, chemistry not fully specified
B7: cr859 (nucleic acid)
guide: B1 guide with G29C, A47T, A65G, T74A, G76C, C82G, A84T
modifications: listed as DNA, chemistry not fully specified
B8: cr836 (nucleic acid)
guide: B1 guide with C60T, T74A, G76C, C82G, A84T
modifications: listed as DNA, chemistry not fully specified
B9: cr852 (nucleic acid)
guide: B1 guide with C60G, T61A, T62A, G63A, A67T, G69C, T74A, G76C, C82G, A84T
modifications: listed as DNA, chemistry not fully specified
B10: cr890 (nucleic acid)
guide: B1 guide with T74A, G76C, A78C, C82G, A84T, T87C
modifications: listed as DNA, chemistry not fully specified
B11: cr779 (nucleic acid)
guide: B1 guide with C60A, G69T, C73T, T74A, C75A, G76C, C82G, G83T, A84T, G85A
modifications: listed as DNA, chemistry not fully specified
B12: cr568 (nucleic acid)
guide: B1 guide with A59T, T61G, A68C, T70A, T74A, C75A, G76C, C82G, G83T, A84T
modifications: listed as DNA, chemistry not fully specified
B13: cr695 (nucleic acid)
guide: B1 guide with T53A, A55G, A64T, T74A, G76C, C82G, A84T
modifications: listed as DNA, chemistry not fully specified
B14: cr439 (nucleic acid)
guide: B1 guide with T16A, T74A, G76C, C82G, A84T
modifications: listed as DNA, chemistry not fully specified
B15: cr887 (nucleic acid)
guide: B1 guide with A31C, A47C, G63C, T74A, G76C, C82G, A84T
modifications: listed as DNA, chemistry not fully specified
B16: cr867 (nucleic acid)
guide: B1 guide with C50T, T74A, G76C, C82G, A84T
modifications: listed as DNA, chemistry not fully specified

Tested on: K562 CRISPRi cells
Experiment: Constant region variant library pooled growth screen, K562
Format: cell-based, human
Settings: sgRNA constant region variants; activity relative to the original, un-modified constant region cr995
How it was run: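 K562 CRISPRi, duplicate transductions; puromycin 1 d 0.75 μg/mL then 1 d 0.85 μg/mL; >2000× coverage in spinner flasks; harvests at 4-8 d growth. Activity = phenotype ÷ phenotype with unmodified constant region.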

Molecule	Mean relative activity
B1	0.7679
B2	1.055
B3	0.7679
B4	0.7672
B5	0.7667
B6	0.7636
B7	0.7625
B8	0.7574
B9	0.7542
B10	0.7513
B11	0.7512
B12	1.054
B13	0.751
B14	0.7506
B15	0.7504
B16	0.7502
